Literature values as cited in paper PMC5386376.

Biological target: Egl1 (Caenorhabditis elegans) (UniProt O61667)
Sequence (O61667 whole entry): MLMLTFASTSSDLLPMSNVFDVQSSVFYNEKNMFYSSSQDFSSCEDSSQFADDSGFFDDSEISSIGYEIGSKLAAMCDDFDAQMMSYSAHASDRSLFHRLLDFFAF

Chain of Bcl-2 (P10415 whole entry): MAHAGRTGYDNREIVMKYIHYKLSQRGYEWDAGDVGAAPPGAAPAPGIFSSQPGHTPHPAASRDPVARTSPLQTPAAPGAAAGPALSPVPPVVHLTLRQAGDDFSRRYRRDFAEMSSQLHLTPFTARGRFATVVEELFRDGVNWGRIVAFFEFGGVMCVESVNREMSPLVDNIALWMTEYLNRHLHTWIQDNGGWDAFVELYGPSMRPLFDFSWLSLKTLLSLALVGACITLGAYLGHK

- Kd: 7.1 µM
Substance: Bcl-2 (from UniProt P10415)
